According to patent publication US20250277023A1 (published 2025):
Where a chain is given by its changes, count along the chain named. Numbers in names are those of the source.

B1: R0968 (PD-L1 monoclonal antibody) (antibody, V domains shown)
VH: QVQLQESGPGLVKPSETLSLTCAVYGDSITSGYWNWIRKPPGKCLEYIGYISYTGSTYQNPSLKSRITMSRDTSKNQYYLKLSSVTAADTAVYYCARSRAWIRTYFDYWGQGTLVTVSS
VL: DIQMTQSPSSLSASVGDRVTITCSVSSSISSSNLHWYQQKPGKAPKPWIYGTSNLASGVPSRFSGSGSGTDYTLTISSLQPEDFATYYCQQWSSYPLTFGCGTKLEIK
B2: R1109: TIGIT_VH_IL15RA (sushi65)/TIGIT_VL_IL15/PD-L1-Fab (bispecific antibody)
chain 1: QVQLVQSGAEVKKPGSSVKVSCKASGYSFTSYWMNWVRQAPGQGLEWIGMIRPSDSETRLNQMFKDRVTITVDKSTSTAYMELSSLRSEDTAVYYCAGIHDYGHGAYWGQGTLVTVSSGGGGSGGGGSGGGGSGGGGSGITCPPPMSVEHADIWVKSYSLYSRERYICNSGFKRKAGTSSLTECVLNKATNVAHWTTPSLKCIREPKSSDKTHTCPPCPAPELLGGPSVFLFPPKPKDTLMISRTPEVTCVVVDVSHEDPEVKFNWYVDGVEVHNAKTKPREEQYNSTYRVVSVLTVLHQDWLNGKEYKCKVSNKALPAPIEKTISKAKGQPREPQVYTLPPSREEMTKNQVSLTCRVKGFYPSDIAVEWESNGQPENNYKTTPPVLKSDGSFFLASKLTVDKSRWQQGNVFSCSVMHEALHNHYTQKSLSLSPGK
chain 2: DIQMTQSPSSLSASVGDRVTITCRASENIYSNLAWYQQKPGKSPKLLVYAASHLPDGVPSRFSGSGSGTDYSLTISSLQPEDFATYYCQHFWGTPRTFGQGTKLEIKGGGGSGGGGSGGGGSGGGGSGNWVNVISDLKKIEDLIQSMHIDATLYTESDVHPSCKVTAMKCFLLELQVISLESGDASIHNTVQDLIILANNSLSSNGNVTESGCKECEELEEKNIKEFLQSFVHIVQMFINTS
heavy: QVQLQESGPGLVKPSETLSLTCAVYGDSITSGYWNWIRKPPGKGLEYIGYISYTGSTYQNPSLKSRITMSRDTSKNQYYLKLSSVTAADTAVYYCARSRAWIRTYFDYWGQGTLVTVSSASTKGPSVFPLAPSSKSTSGGTAALGCLVKDYFPEPVTVSWNSGALTSGVHTFPAVLQSSGLYSLSSVVTVPSSSLGTQTYICNVNHKPSNTKVDKRVEPKSCDKTHTCPPCPAPELLGGPSVFLFPPKPKDTLMISRTPEVTCVVVDVSHEDPEVKFNWYVDGVEVHNAKTKPREEQYNSTYRVVSVLTVLHQDWLNGKEYKCKVSNKALPAPIEKTISKAKGQPREPQVYTLPPSREEMTKNQVSLWCLVKGFYPSDIAVEWESNGQPENNYDTTPPVLDSDGSFFLYSDLTVDKSRWQQGNVFSCSVMHEALHNHYTQKSLSLSPGK
light: DIQMTQSPSSLSASVGDRVTITCSVSSSISSSNLHWYQQKPGKAPKPWIYGTSNLASGVPSRFSGSGSGTDYTLTISSLQPEDFATYYCQQWSSYPLTFGQGTKLEIKRTVAAPSVFIFPPSDEQLKSGTASVVCLLNNFYPREAKVQWKVDNALQSGNSQESVTEQDSKDSTYSLSSTLTLSKADYEKHKVYACEVTHQGLSSPVTKSFNRGEC
B3: R1110: TIGIT_VH_IL15RA (sushi65 T2A)/TIGIT_VL_IL15/PD-L1-Fab (bispecific antibody)
chain 1: B2 chain 1 with T141A
chain 2: B2 chain 2
heavy: B2 heavy
light: B2 light
B4: R1111: TIGIT_VH_IL15RA (sushi65 T2A, T81A, T86A)/TIGIT_VL_IL15/PD-L1-Fab (bispecific antibody)
chain 1: QVQLVQSGAEVKKPGSSVKVSCKASGYSFTSYWMNWVRQAPGQGLEWIGMIRPSDSETRLNQMFKDRVTITVDKSTSTAYMELSSLRSEDTAVYYCAGIHDYGHGAYWGQGTLVTVSSGGGGSGGGGSGGGGSGGGGSGIACPPPMSVEHADIWVKSYSLYSRERYICNSGFKRKAGTSSLTECVLNKATNVAHWTTPSLKCIRDPALVHQRPAPPSTVATAGVAPQPESLSPSGKEPAASSPSSNNTAATTAEPKSSDKTHTCPPCPAPELLGGPSVFLFPPKPKDTLMISRTPEVTCVVVDVSHEDPEVKFNWYVDGVEVHNAKTKPREEQYNSTYRVVSVLTVLHQDWLNGKEYKCKVSNKALPAPIEKTISKAKGQPREPQVYTLPPSREEMTKNQVSLTCRVKGFYPSDIAVEWESNGQPENNYKTTPPVLKSDGSFFLASKLTVDKSRWQQGNVFSCSVMHEALHNHYTQKSLSLSPGK
chain 2: B2 chain 2
heavy: B2 heavy
light: B2 light
B5: R1119: TIGIT_VH_IL18R1_D1D2/TIGIT_VL_IL18/PD-L1-Fab (bispecific antibody)
chain 1: QVQLVQSGAEVKKPGSSVKVSCKASGYSFTSYWMNWVRQAPGQGLEWIGMIRPSDSETRLNQMFKDRVTITVDKSTSTAYMELSSLRSEDTAVYYCAGIHDYGHGAYWGQGTLVTVSSGGGGSGGGGSGGGGSGGGGSGCTSRPHITVVEGEPFYLKHCSCSLAHEIETTTKSWYKSSGSQEHVELNPRSSSRIALHDCVLEFWPVELNDTGSYFFQMKNYTQKWKLNVIRRNKHSCFTERQVTSKIVEVKKFFQITCENSYYQTLVNSTSLYKNCKKLLLENNKNPTIKKNAEFEDQGYYSCVHFLHHNGKLFNITKTFNITIVEDRSNIVEPKSSDKTHTCPPCPAPELLGGPSVFLFPPKPKDTLMISRTPEVTCVVVDVSHEDPEVKFNWYVDGVEVHNAKTKPREEQYNSTYRVVSVLTVLHQDWLNGKEYKCKVSNKALPAPIEKTISKAKGQPREPQVYTLPPSREEMTKNQVSLTCRVKGFYPSDIAVEWESNGQPENNYKTTPPVLKSDGSFFLASKLTVDKSRWQQGNVFSCSVMHEALHNHYTQKSLSLSPGK
chain 2: not shown
heavy: B2 heavy with Q1E, I48M, M69F, V92T
light: EIVLTQSPDFQSVTPKEKVTITCSVSSSISSSNLHWYQQKPDQSPKLLIYGTSNLASGVPSRFSGSGSGTDFTLTINSLEAEDAATYYCQQWSSYPLTFGQGTKLEIKRTVAAPSVFIFPPSDEQLKSGTASVVCLLNNFYPREAKVQWKVDNALQSGNSQESVTEQDSKDSTYSLSSTLTLSKADYEKHKVYACEVTHQGLSSPVTKSFNRGEC
B6: R1116: TIGIT_VH_IL2/TIGIT_VL_IL2RA/PD-L1-Fab (bispecific antibody)
chain 1: not shown
chain 2: DIQMTQSPSSLSASVGDRVTITCRASENIYSNLAWYQQKPGKSPKLLVYAASHLPDGVPSRFSGSGSGTDYSLTISSLQPEDFATYYCQHFWGTPRTFGQGTKLEIKGGGGSGGGGSGGGGSGGGGSGELCDDDPPEIPHATFKAMAYKEGTMLNCECKRGFRRIKSGSLYMLCTGNSSHSSWDNQCQCTSSATRNTTKQVTPQPEEQKERKTTEMQSPMQPVDQASLPGHCREPPPWENEATERIYHFVVGQMVYYQCVQGYRALHRGPAESVCKMTHGKTRWTQPQLICTG
heavy: B2 heavy with Q1E, I48M, M69F, V92T
light: B5 light
B7: R1120: TIGIT_VH_IL18R1_D1D2D3/TIGIT_VL_IL18/PD-L1-Fab (bispecific antibody)
chain 1: QVQLVQSGAEVKKPGSSVKVSCKASGYSFTSYWMNWVRQAPGQGLEWIGMIRPSDSETRLNQMFKDRVTITVDKSTSTAYMELSSLRSEDTAVYYCAGIHDYGHGAYWGQGTLVTVSSGGGGSGGGGSGGGGSGGGGSGCTSRPHITVVEGEPFYLKHCSCSLAHEIETTTKSWYKSSGSQEHVELNPRSSSRIALHDCVLEFWPVELNDTGSYFFQMKNYTQKWKLNVIRRNKHSCFTERQVTSKIVEVKKFFQITCENSYYQTLVNSTSLYKNCKKLLLENNKNPTIKKNAEFEDQGYYSCVHFLHHNGKLFNITKTFNITIVEDRSNIVPVLLGPKLNHVAVELGKNVRLNCSALLNEEDVIYWMFGEENGSDPNIHEEKEMRIMTPEGKWHASKVLRIENIGESNLNVLYNCTVASTGGTDTKSFIEPKSSDKTHTCPPCPAPELLGGPSVFLFPPKPKDTLMISRTPEVTCVVVDVSHEDPEVKFNWYVDGVEVHNAKTKPREEQYNSTYRVVSVLTVLHQDWLNGKEYKCKVSNKALPAPIEKTISKAKGQPREPQVYTLPPSREEMTKNQVSLTCRVKGFYPSDIAVEWESNGQPENNYKTTPPVLKSDGSFFLASKLTVDKSRWQQGNVFSCSVMHEALHNHYTQKSLSLSPGK
chain 2: not shown
heavy: B2 heavy with Q1E, I48M, M69F, V92T
light: B5 light
B8: R0919 (PD-L1 monoclonal antibody) (antibody, V domains shown)
VH: B1 VH with Q1E, C44G, I48M, M69F, V92T
VL: EIVLTQSPDFQSVTPKEKVTITCSVSSSISSSNLHWYQQKPDQSPKLLIYGTSNLASGVPSRFSGSGSGTDFTLTINSLEAEDAATYYCQQWSSYPLTFGQGTKLEIK

Target: T1, PD-L1 (on CHO-PD-L1 cells) (UniProt Q9NZQ7 19-290)
T1 sequence (Q9NZQ7 19-290): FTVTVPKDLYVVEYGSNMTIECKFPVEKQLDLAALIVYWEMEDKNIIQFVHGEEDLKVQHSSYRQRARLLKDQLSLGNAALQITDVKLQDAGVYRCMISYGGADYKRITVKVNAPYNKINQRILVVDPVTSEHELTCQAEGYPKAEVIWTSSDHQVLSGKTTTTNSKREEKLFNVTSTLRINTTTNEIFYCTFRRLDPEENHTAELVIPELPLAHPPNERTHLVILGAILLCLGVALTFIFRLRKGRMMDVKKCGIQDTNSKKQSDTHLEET
Assay: FACS binding; Fig. 24

EC50	Binder
2.01 nM	B1

Target: T1, PD-L1 (on CHO-PD-L1 cells)
Assay: FACS binding; Fig. 25

EC50	Binder
1.56 nM	B2
1.53 nM	B3
2.39 nM	B4
2.91 nM	B1

Target: T1, PD-L1 (on CHO-PD-L1 cells)
Assay: FACS binding; Fig. 22

EC50	Binder
2.95 nM	B5
4.15 nM	B6
2.99 nM	B7
3.38 nM	B8
